In data set [1] the test system is MDA-MB-435 tumors. Briefly: HerDox/Dox tumor targeting, biodistribution and pharmacokinetics by fluorescence imaging. The procedure:
Tumor-bearing mice were injected with 0.02 mg/kg (final Dox dose) of HerDox or Dox via the tail vein and imaged with a custom small animal imager. FIG. 19A, Imaging of live mice after TV delivery of HerDox. Time points are shown as minutes after injection. Tumors are indicated by arrows. FIG. 19B, Imaging of tumors and tissues harvested at 3 h after injection of HerDox or Dox. Fluorescence signal from Dox is pseudo-colored according to the color bar, with a shift toward 100 indicating high fluorescence intensity.
(§1) FIG. 29A, Live mouse imaging of HerDox at indicated time points after injection. Arrows, Tumors. 29B-29C, Comparative biodistribution of HerDox and Dox in tissues harvested at 3 h post-injection. FIG. 29B, Imaging of biodistribution in harvested tissues. Pseudocolored FI corresponds to the color bar. Max, highest FI. FIG. 29C, Quantification of HerDox and Dox biodistribution, showing Dox FI/tissue. FIG. 29D. Comparative pharmacokinetics of HerDox and Dox in mice with tumors expressing differential HER2. Tissues were harvested from independently injected mice euthanized at indicated time points after injection and FI/tissue acquired using a small animal imaging system as described herein.
Mice received a single tail vein injection of Dox alone or the complex (HerDox) (0.02 mg/kg with respect to Dox conc) and were imaged live using a customized macro-illumination and detection system.
(§2) Heart rate and body temperature were monitored. […] Three beats were averaged for each measurement.
A customized macro-illumination and detection system was used for in vivo and tissue imaging. Dox was excited with the 488 nm line of a Coherent Innova ArKr laser. Laser light (300 mW) was directed into a light-tight box via mirrors and expanded by an engineered circular tophat diffuser (Thorlabs ED1-C20) to a uniform circular beam of approximately 15 cm in diameter. The incidence angle to the vertical plane was approximately 150. Fluorescence light was collected via a telecentric lens (Melles-Griot 59LGG925 base lens with a 59LGL428 attachment lens) that can operate at f/#2, has a magnification of 0.9, working distance of 257 mm and a depth of field of 81.5 mm. A bandpass filter (580 nm with a 50 nm bandwidth) was used in the emission pathway to reject the excitation light. Images showing FI were collected with a cooled CCD camera (Hamamatsu ORCA-ER). Where indicated, a Maestro imager was used (Cedars-Sinai Imaging Core Facility). ImageJ was used to calculate average fluorescence intensities of the overall region of each selected tissue.
MDA-MB-435 tumor-bearing mice were imaged live after a single tail vein injection of HerDox, in order to visualize tumor-targeting ability in vivo.

Data set [2] relates to U87 human glioma tumors. As to the method:
as §1, §2
A customized macro-illumination and detection system was used for in vivo and tissue imaging. Dox was excited with the 488 nm line of a Coherent Innova ArKr laser. […] Fluorescence light was collected via a telecentric lens (Melles-Griot 59LGG925 base lens with a 59LGL428 attachment lens) that can operate at f/#2, has a magnification of 0.9, working distance of 257 mm and a depth of field of 81.5 mm. […] ImageJ was used to calculate average fluorescence intensities of the overall region of each selected tissue. […]

For data set [3] the following is noted: mouse, in vivo.
Text: (§3) Histology of myocardia from treated mice. Micrographs show representative H&E stained specimens from treated mice.
(§4) Female immunodeficient (nu/nu) mice (6-8 weeks; Charles River Laboratories International, Wilmington, MA, USA) received subcutaneous bilateral flank injections of 1×10^7 indicated cells and monitored until tumors reached ˜200-300 mm3, at which point the following treatments were initiated. […] To assess therapeutic efficacy, a new group of tumor-bearing mice received daily i.v. (tail vein) injections of HerDox or Dox at indicated doses for 7 days followed by continued monitoring of tumor volumes (assessed by measuring tumor length and width using calipers, and applying LxW2), animal weights, and heart function. […] Cardiac function in anesthetized mice was evaluated by a Vevo 770 High-Frequency Ultrasound system (VisualSonics, Toronto, Canada). Heart rate and body temperature were monitored. Superficial hair was removed from the region of interest with a depilatory cream (Nair) before imaging. The 2-dimensional guided M-mode images of the left ventricle were obtained in the short-axis view at the papillary level with the mouse in the supine position. All primary measurements were traced manually and digitized by goal-directed software installed within the echocardiograph. Three beats were averaged for each measurement. All measurements were done from leading edge to leading edge according to the American Society of Echocardiography guidelines. At animal study completion, tissue harvested from euthanized mice were fixed in 4% paraformaldehyde/PBS at 4° C. for 24 h followed by transfer into 20% sucrose/PBS and storage at −80° C. before immunohistochemical processing. Specimens and hematoxylin/eosin staining were prepared by AML Laboratories, Inc., Baltimore, MD, USA.
Data set [4] in a line: HerDox stability in storage, ultrafiltration. The format is physicochemical. Conditions: 4° C., RT, or 37° C. over a 12 day period. The procedure:
FIG. 34A, HerDox stability in different storage conditions. HerDox was incubated at indicated times and temperatures was applied to a 10K mwco ultrafiltration membrane every other day, and retentate and filtrate A480 measured to determine relative Dox retention or release from complexes, respectively. […] FIG. 34B, Assessing stability in serum-containing media by ultrafiltration. HerDox immobilized on Ni-NTA beads (Qiagen Inc., Valencia. CA, USA) by incubation on ice for 2 h with agitation followed by free HerDox removal via bead pelleting/washing in HBS received 10% fetal bovine serum (FBS), to mimic cell culture conditions, and incubated at 37° C. with agitation for the indicated time-points. At each time-point, samples were pelleted and mean A480±SD (N=3) of supernatants (Released) and bead eluates (Retained) were measured. […] Relative Dox release or retention in serum is expressed as normalized to control (corresponding serum-lacking sample). […] Dox fluorescence (top panel) was visualized by UV excitation. […] Dox (1.6 nmoles) was added to serum coated wells and incubated for 30 min at 37° C. with agitation before supernatants were removed and the wells washed once with HBS before fluorescence spectra were measured for pre-incubation sample (Input), supernatant (Free) and wells (Serum-bound). Fluorescence spectra were obtained at Ex 485 nm/Em 520-750 nm with a 515 nm cutoff filter. […]

Data set [5] is described as follows: Cardiac function (echocardiography) and myocardial histology of treated mice.
Text: as §3, §4
[6] abbreviates: maximum FI, ˜3 h after injection.
[7] abbreviates: single tail vein injection, 0.02 mg/kg Dox.

“Also recorded” adds a separate entry of the source. Like-named read-outs stand apart in the source and are kept apart here.

The text below walks through data of patent US11795454B2, “Targeted delivery system” (Cedars-Sinai Medical Center, priority 2009, dated 2023).

Take `COc1cccc2c1C(=O)c1c(O)c3c(c(O)c1C2=O)C[C@@](O)(C(=O)CO)C[C@@H]3O[C@H]1C[C@H](N)[C@H](O)[C@H](C)O1.Cl` [Dox, Doxorubicin-HCl, reference compound]: the “fluorescence in the lungs and skeletal muscle” value in data set [1] (harvested ˜3 h after injection) was “Lower levels of fluorescence”. In data set [1] (mouse, in vivo), the “fluorescence in the kidneys” value was “detectable fluorescence”, the “fluorescence in the liver” value is recorded as “detectable fluorescence”, the “fluorescence in the tumors” value was “detectable fluorescence” and the “tumor accumulated Dox lower compared to HerDox” value was determined as 1000 fluorescence units. In data set [2] (mouse, in vivo, iv), the “delivery to U87 tumors higher compared to MDA-MB-435 tumors” value is listed as 200-300 fluorescence units per tissue. Besides, the myocardial histology result in data set [3] is listed as “myofibrillar degeneration”. Besides, in data set [3] (0.004 mg/kg), the “stroke volume, cardiac output, left ventricular internal dimension and volume” value is reported as “modest to marked reductions”.

B1: HerDox: self-assembled nanoparticle of oligonucleotide duplex, doxorubicin and HerPBK10 (conjugate)
chain: LPPRLKEMKSQESAAGSKLVLRCETSSEYSSLRFKWFKNGNELNRKNKPQNIKIQKKPGKSELRINKASLADSGEYMCKVISKLGNDSASANITIVESNEIITGMPASTEGAYVSSESPIRISVSTEGANTSSSTSTSTTGTSHLVKCAEKEKTFCVNGGECFMVKDLSNPSRYLCKCQPGFTGARCTENVPMKVQNQEKAEELYMRRAAMYEEGPPPSYESVVSAAPVAAALGSPFDAPLDPPFVPPRYLRPTGGRNSIRYSELAPLFDTTRVYLVDNKSTDVASLNYQNDHSNFLTTVIQNNDYSPGEASTQTINLDDRSHWGGDLKTILHTNMPNVNEFMFTNKFKARVMVSRLPTKDNQVELKYEWVEFTLPEGNYSETMTIDLMNNAIVEHYLKVGRQNGVLESDIGVKFDTRNFRLGFDPVTGLVMPGVYTNEAFHPDIILLPGCGVDFTHSRLSNLLGIRKRQPFQEGFRITYDDLEGGNIPALLDVDAYQASLKDDTEQGGGGAGGSNSSGSGAEENSNAAAAAMQPVEDMNDHAIRGDTFATRAEEKRAEAEAAAEAAAPAAQPEVEKPQKKPVIKPLTEDSKKRSYNLISNDSTFTQYRSWYLAYNYGDPQTGIRSWTLLCTPDVTCGSEQVYWSLPDMMQDPVTFRSTRQISNFPVVGAELLPVHSKSFYNDQAVYSQLIRQFTSLTHVFNRFPENQILARPPAPTITTVSENVPALTDHGTLPLRNSIGGVQRVTITDARRRTCPYVYKALGIVSPRVLSSRTFKKKKKKKKKK
In the case of B1, in data set [1] (harvested ˜3 h after injection), the “fluorescence in heart, spleen, lungs, and skeletal muscle” value is “did not exhibit any fluorescence; also recorded: no detectable fluorescence”; the “fluorescence in the kidneys” value is listed as “barely detectable”; the “fluorescence in the liver” value is listed as “substantially lower levels of fluorescence”; the “fluorescence in the tumors” value was “intense fluorescence”. Also, in data set [1] (setting [6]), the “kidney FI lower than tumors” value is 65% and the “liver FI lower than tumors” value is 45%. Besides, the “time of kidney entry” value in data set [1] (pharmacokinetics, single i.v. injection) was at most 10 min. Besides, in data set [1] (setting [7]), the “time detectable in the tumors after injection” value is “up to 100 min” and the “time of accumulation at the tumors after injection” value was at most 20 min. For the same molecule, the “tumor accumulation higher compared to normal tissue” value in data set [1] (up to 24 h, heart, liver, muscle, spleen, lung, kidneys) is on record as 500-1000 fluorescence units higher/tissue. In data set [2] (i.v.), the “delivery to U87 tumors lower compared to MDA-MB-435 tumor-bearing mice” value is on record as around 50%. The “Dox release in storage” value in data set [4] is reported as “no detectable Dox release”. The myocardial histology result in data set [5] (H&E) is reported as “normal cardiac morphology”. For the same molecule, the “stroke volume, cardiac output, left ventricular internal dimension and volume” value in data set [5] (echocardiography 25 days following injections, 0.004 mg/kg) is reported as “no effect on these measurements; also recorded: no cardiac dysfunction or histological damage”.
